From PMC10219652, “Insights into cargo sorting by SNX32 and its role in neurite outgrowth” (eLife, 2023)

How the values were obtained:
GFP-SNX4 [1] = target: GFP-SNX4 (UniProt O95219); test: co-IP; GBP-IP as above with lysates of HeLa cells transiently transfected with wild-type or mutant GFP-SNX4 and HA-SNX32 (legend of Figure 1H); values are the ratio of HA to GFP band intensity
GFP-SNX32 = target: T1, GFP-SNX32 (UniProt Q86XE0-1 1-403); test: co-IP; GFP nanobody-based immunoprecipitation (GBP-IP): GST-GBP on glutathione sepharose beads incubated 2 hr at 4°C with extracts of HEK293T cells overexpressing GFP- and HA-tagged SNX proteins; washed with 1x PBS; immunoblot with anti-HA and anti-GFP; values are the ratio of HA to GFP band intensity; settings: partners not purified
T1 construct: Sorting nexin 32 (SNX32, SNX6b); pEGFP C1 SNX32 FL, gift of P. J. Cullen; also called GFP-SNX32 WT; pEGFP C1 SNX32 FL; source: HEK293T or HeLa, transiently transfected, in lysate
T1 sequence (looked up): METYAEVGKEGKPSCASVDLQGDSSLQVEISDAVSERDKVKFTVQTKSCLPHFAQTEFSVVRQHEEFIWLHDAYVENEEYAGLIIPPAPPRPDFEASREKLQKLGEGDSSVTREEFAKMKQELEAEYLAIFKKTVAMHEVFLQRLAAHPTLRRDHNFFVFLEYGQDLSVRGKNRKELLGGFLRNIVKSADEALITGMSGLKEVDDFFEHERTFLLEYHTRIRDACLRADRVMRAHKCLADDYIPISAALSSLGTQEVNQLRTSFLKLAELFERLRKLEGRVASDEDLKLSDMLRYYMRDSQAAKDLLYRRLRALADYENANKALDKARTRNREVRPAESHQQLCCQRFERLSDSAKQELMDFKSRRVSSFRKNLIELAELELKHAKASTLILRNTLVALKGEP

GFP-SNX8 = target: T2, GFP-SNX8 (UniProt Q9Y5X2 1-465); test: as above; settings: partners not purified
T2 construct: Sorting nexin 8 (SNX8); the plasmid is not described in the methods; source: HEK293T, transiently transfected, in lysate
T2 sequence (looked up): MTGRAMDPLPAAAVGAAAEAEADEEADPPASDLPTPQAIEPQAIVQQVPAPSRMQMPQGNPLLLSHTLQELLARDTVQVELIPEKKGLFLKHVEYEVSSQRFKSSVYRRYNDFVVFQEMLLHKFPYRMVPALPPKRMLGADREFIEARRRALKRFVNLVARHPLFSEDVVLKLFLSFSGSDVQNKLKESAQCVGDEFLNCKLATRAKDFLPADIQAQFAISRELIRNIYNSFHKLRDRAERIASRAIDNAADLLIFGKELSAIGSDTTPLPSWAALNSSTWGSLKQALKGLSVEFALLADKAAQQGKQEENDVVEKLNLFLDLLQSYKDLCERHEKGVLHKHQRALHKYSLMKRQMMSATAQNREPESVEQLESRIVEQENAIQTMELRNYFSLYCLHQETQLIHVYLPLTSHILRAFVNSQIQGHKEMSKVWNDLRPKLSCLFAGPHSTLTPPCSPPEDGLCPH

GFP-SNX1 = target: T3, GFP-SNX1 (UniProt Q13596-1 1-522); test: as above; settings: partners not purified
T3 construct: Sorting nexin 1 (SNX1); pEGFP C1 SNX1, gift of P. J. Cullen; also called GFP-SNX1 WT; pEGFP C1 SNX1

GFP-SNX4, O95219 = target: T4, GFP-SNX4, O95219; test: as above; settings: remark: other sources report otherwise
T4 chain: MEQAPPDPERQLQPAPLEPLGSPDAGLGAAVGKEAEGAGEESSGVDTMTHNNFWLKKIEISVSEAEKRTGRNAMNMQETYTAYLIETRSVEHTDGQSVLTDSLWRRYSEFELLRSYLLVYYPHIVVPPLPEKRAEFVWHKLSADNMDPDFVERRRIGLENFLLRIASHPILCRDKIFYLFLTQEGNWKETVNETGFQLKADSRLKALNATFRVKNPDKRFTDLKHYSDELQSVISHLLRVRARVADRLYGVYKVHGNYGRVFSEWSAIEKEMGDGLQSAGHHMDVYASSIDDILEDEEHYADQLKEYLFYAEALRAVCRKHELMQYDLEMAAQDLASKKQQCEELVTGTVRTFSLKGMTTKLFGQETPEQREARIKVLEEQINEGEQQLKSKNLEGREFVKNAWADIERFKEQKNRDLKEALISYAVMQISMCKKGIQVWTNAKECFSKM

GFP-SNX4 [2] = target: T5, GFP-SNX4 (UniProt O95219-1 1-450); test: co-IP; GBP-IP as above with lysates of HeLa cells transiently transfected with wild-type or mutant GFP-SNX4 and HA-SNX32 (legend of Figure 1H); values are the ratio of HA to GFP band intensity; settings: partners not purified
T5 construct: Sorting nexin 4 (SNX4); pEGFP C1 SNX4, gift of P. J. Cullen; also called GFP-SNX4 WT; pEGFP C1 SNX4; source: HEK293T or HeLa, transiently transfected, in lysate
T5 sequence (looked up): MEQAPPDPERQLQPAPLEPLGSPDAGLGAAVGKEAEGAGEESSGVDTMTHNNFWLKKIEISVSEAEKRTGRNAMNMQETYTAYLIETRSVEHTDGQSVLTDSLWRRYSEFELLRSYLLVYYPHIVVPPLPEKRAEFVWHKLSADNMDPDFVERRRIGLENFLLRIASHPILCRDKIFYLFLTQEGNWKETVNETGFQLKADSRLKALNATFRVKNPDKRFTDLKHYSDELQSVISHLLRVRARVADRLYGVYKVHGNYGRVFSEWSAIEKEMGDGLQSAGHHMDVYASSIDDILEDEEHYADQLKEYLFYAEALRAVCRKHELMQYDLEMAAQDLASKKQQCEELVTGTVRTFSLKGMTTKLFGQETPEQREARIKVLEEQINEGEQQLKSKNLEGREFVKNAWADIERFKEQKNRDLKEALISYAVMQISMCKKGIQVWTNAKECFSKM

T3 sequence (Q13596 whole entry): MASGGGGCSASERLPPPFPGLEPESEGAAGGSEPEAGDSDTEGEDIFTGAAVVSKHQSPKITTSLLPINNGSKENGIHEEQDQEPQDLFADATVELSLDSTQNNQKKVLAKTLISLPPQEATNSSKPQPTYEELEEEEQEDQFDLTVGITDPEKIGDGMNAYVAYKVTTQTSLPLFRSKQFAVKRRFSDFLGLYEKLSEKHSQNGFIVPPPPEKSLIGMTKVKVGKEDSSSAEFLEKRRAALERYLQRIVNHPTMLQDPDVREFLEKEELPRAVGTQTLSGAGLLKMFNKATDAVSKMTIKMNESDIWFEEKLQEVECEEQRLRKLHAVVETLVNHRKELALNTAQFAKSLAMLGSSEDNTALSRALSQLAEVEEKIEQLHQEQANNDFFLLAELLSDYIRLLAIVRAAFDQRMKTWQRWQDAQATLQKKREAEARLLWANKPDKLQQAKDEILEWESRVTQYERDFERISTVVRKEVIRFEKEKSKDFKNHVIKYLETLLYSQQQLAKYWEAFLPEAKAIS

Work on “HA-SNX32 A226E (from UniProt Q86XE0-1 1-403) (natural protein)” yielded a ratio of HA to GFP band intensity (GFP-SNX4 [1]) of 0.65.

B1: HA-SNX32 full-length (FL) (natural protein, UniProt Q86XE0-1 1-403, looked up)
chain: METYAEVGKEGKPSCASVDLQGDSSLQVEISDAVSERDKVKFTVQTKSCLPHFAQTEFSVVRQHEEFIWLHDAYVENEEYAGLIIPPAPPRPDFEASREKLQKLGEGDSSVTREEFAKMKQELEAEYLAIFKKTVAMHEVFLQRLAAHPTLRRDHNFFVFLEYGQDLSVRGKNRKELLGGFLRNIVKSADEALITGMSGLKEVDDFFEHERTFLLEYHTRIRDACLRADRVMRAHKCLADDYIPISAALSSLGTQEVNQLRTSFLKLAELFERLRKLEGRVASDEDLKLSDMLRYYMRDSQAAKDLLYRRLRALADYENANKALDKARTRNREVRPAESHQQLCCQRFERLSDSAKQELMDFKSRRVSSFRKNLIELAELELKHAKASTLILRNTLVALKGEP
notes: Sorting nexin 32 (SNX32, SNX6b); pcDNA3 HA N(I)-SNX32 FL subcloned from pEGFP C1-SNX32FL; also called HA-SNX32FL; HA-SNX32 WT; source: HEK293T or HeLa, transiently transfected, in lysate
For B1, the “ratio of HA to GFP band intensity” value (GFP-SNX32) was 0.85, the “ratio of HA to GFP band intensity” value (GFP-SNX8) was 0.62 and the “ratio of HA to GFP band intensity” value (GFP-SNX1) was 0.98. The ratio of HA to GFP band intensity (GFP-SNX4, O95219) was 0.92.

B2: HA-SNX32 E256R (natural protein, UniProt Q86XE0-1 1-403, looked up)
chain: METYAEVGKEGKPSCASVDLQGDSSLQVEISDAVSERDKVKFTVQTKSCLPHFAQTEFSVVRQHEEFIWLHDAYVENEEYAGLIIPPAPPRPDFEASREKLQKLGEGDSSVTREEFAKMKQELEAEYLAIFKKTVAMHEVFLQRLAAHPTLRRDHNFFVFLEYGQDLSVRGKNRKELLGGFLRNIVKSADEALITGMSGLKEVDDFFEHERTFLLEYHTRIRDACLRADRVMRAHKCLADDYIPISAALSSLGTQRVNQLRTSFLKLAELFERLRKLEGRVASDEDLKLSDMLRYYMRDSQAAKDLLYRRLRALADYENANKALDKARTRNREVRPAESHQQLCCQRFERLSDSAKQELMDFKSRRVSSFRKNLIELAELELKHAKASTLILRNTLVALKGEP
notes: Sorting nexin 32 (SNX32) with a point mutation, made by site-directed mutagenesis of HA-tagged SNX32; also called pcDNA3 HA N(I)-SNX32E256R; source: HeLa, transiently transfected, in lysate
B2 was tested, and the “ratio of HA to GFP band intensity” value (GFP-SNX4 [2]) was 0.66.

B3: HA-SNX32 R220E (natural protein, UniProt Q86XE0-1 1-403, looked up)
chain: METYAEVGKEGKPSCASVDLQGDSSLQVEISDAVSERDKVKFTVQTKSCLPHFAQTEFSVVRQHEEFIWLHDAYVENEEYAGLIIPPAPPRPDFEASREKLQKLGEGDSSVTREEFAKMKQELEAEYLAIFKKTVAMHEVFLQRLAAHPTLRRDHNFFVFLEYGQDLSVRGKNRKELLGGFLRNIVKSADEALITGMSGLKEVDDFFEHERTFLLEYHTEIRDACLRADRVMRAHKCLADDYIPISAALSSLGTQEVNQLRTSFLKLAELFERLRKLEGRVASDEDLKLSDMLRYYMRDSQAAKDLLYRRLRALADYENANKALDKARTRNREVRPAESHQQLCCQRFERLSDSAKQELMDFKSRRVSSFRKNLIELAELELKHAKASTLILRNTLVALKGEP
notes: Sorting nexin 32 (SNX32) with a point mutation, made by site-directed mutagenesis of HA-tagged SNX32; also called pcDNA3 HA N(I)-SNX32 R220E; source: HeLa, transiently transfected, in lysate
In the case of B3, the “ratio of HA to GFP band intensity” value (GFP-SNX4 [2]) is reported as 1.02.

B4: HA-SNX32 Q259R (natural protein, UniProt Q86XE0-1 1-403, looked up)
chain: METYAEVGKEGKPSCASVDLQGDSSLQVEISDAVSERDKVKFTVQTKSCLPHFAQTEFSVVRQHEEFIWLHDAYVENEEYAGLIIPPAPPRPDFEASREKLQKLGEGDSSVTREEFAKMKQELEAEYLAIFKKTVAMHEVFLQRLAAHPTLRRDHNFFVFLEYGQDLSVRGKNRKELLGGFLRNIVKSADEALITGMSGLKEVDDFFEHERTFLLEYHTRIRDACLRADRVMRAHKCLADDYIPISAALSSLGTQEVNRLRTSFLKLAELFERLRKLEGRVASDEDLKLSDMLRYYMRDSQAAKDLLYRRLRALADYENANKALDKARTRNREVRPAESHQQLCCQRFERLSDSAKQELMDFKSRRVSSFRKNLIELAELELKHAKASTLILRNTLVALKGEP
notes: Sorting nexin 32 (SNX32) with a point mutation, made by site-directed mutagenesis of HA-tagged SNX32; also called pcDNA3 HA N(I)-SNX32 Q259R; source: HeLa, transiently transfected, in lysate
In the case of B4, the “ratio of HA to GFP band intensity” value (GFP-SNX4 [2]) is reported as 0.75.

B5: HA-SNX32 R366E (natural protein, UniProt Q86XE0-1 1-403, looked up)
chain: METYAEVGKEGKPSCASVDLQGDSSLQVEISDAVSERDKVKFTVQTKSCLPHFAQTEFSVVRQHEEFIWLHDAYVENEEYAGLIIPPAPPRPDFEASREKLQKLGEGDSSVTREEFAKMKQELEAEYLAIFKKTVAMHEVFLQRLAAHPTLRRDHNFFVFLEYGQDLSVRGKNRKELLGGFLRNIVKSADEALITGMSGLKEVDDFFEHERTFLLEYHTRIRDACLRADRVMRAHKCLADDYIPISAALSSLGTQEVNQLRTSFLKLAELFERLRKLEGRVASDEDLKLSDMLRYYMRDSQAAKDLLYRRLRALADYENANKALDKARTRNREVRPAESHQQLCCQRFERLSDSAKQELMDFKSREVSSFRKNLIELAELELKHAKASTLILRNTLVALKGEP
notes: Sorting nexin 32 (SNX32) with a point mutation, made by site-directed mutagenesis of HA-tagged SNX32; also called pcDNA3 HA N(I)-SNX32 R366E; source: HeLa, transiently transfected, in lysate
B5 was tested, and the “ratio of HA to GFP band intensity” value (GFP-SNX4 [2]) was 0.49.
